Measured values as given in patent US20240417475A1 (AFFIMED, published 2024).
Blank lines part the entries; values can stand above or below the binder they belong to.

Key:
[1] = target: T1, cynomolgus CD16 expressed on CHO cells (cAg_36) (cynomolgus, UniProt Q8SPW2 17-254); assay: flow cytometry on cyCD16 CHO cells (cAg_36), one-site fit of MFI, mean
T1 construct: whole, on cells; also called cyCD16
Protocol: (§1) After washing in FACS buffer, cells were incubated in 50 μL FACS buffer without antibodies or with titrated antibodies starting at a concentration of 1000 nM followed by elven 3-fold serial dilutions for 40-50 min on ice in the dark. […] After washing, binding was measured by flow cytometry and mean fluorescence intensities (MFI) of cell samples were calculated and corrected for background staining using control cells stained with secondary antibodies only.
(§2) Equilibrium dissociation constants (KD) of antibody binding were calculated by plotting MFI values and fitting a non-linear regression model for one-site binding to hyperbolic dose-response curves using GraphPad Prism.

[2] = target: T1, cynomolgus CD16 expressed on CHO cells …; assay: flow cytometry on cyCD16 CHO cells (cAg_36), one-site fit of MFI, Exp. 3
Protocol: as §1, §2

[3] = target: T2, cynomolgus FOLR1 expressed on CHO cells (cAg_126) (cynomolgus, UniProt A0A2K5U044 25-234); assay: flow cytometry on cyFOLR1 CHO cells (cAg_126), one-site fit of MFI, mean
T2 construct: whole, on cells; also called cyFOLR1
Protocol: (§3) To analyze binding of different antibody constructs to CHO cells transfected with human FOLR1 (cAg_125) and cynomolgus FOLR1 (cAg_126), 1-5×10⁵ were resuspended in 100 μL FACS buffer (PBS (BioWest, cat.: L0615-500) containing 2% heat-inactivated FCS (Invitrogen, cat.: 10500-064), and 0.1% sodium azide (Sigma, cat.: S8032_100G)) in round-bottom 96-well microtiter plates. After washing in FACS buffer, cells were incubated in 50 μL FACS buffer without antibodies or with titrated antibodies starting at a concentration of 1000 nM followed by eleven 3-fold serial dilutions for 40-50 min on ice in the dark. […] After washing, binding was measured by flow cytometry and mean fluorescence intensities (MFI) of cell samples were calculated and corrected for background staining using control cells stained with secondary antibodies only.
as §2, with “Binding of antibody constructs to huFOLR1-as well as cyFOLR1-transfected CHO cells was measured by flow cytometry. Equilibrium” for “Equilibrium”

[4] = target: T3, human FOLR1 expressed on CHO cells (cAg_125) (human, UniProt P15328 25-234); assay: flow cytometry on huFOLR1 CHO cells (cAg_125), one-site fit of MFI, mean
T3 construct: whole, on cells; also called huFOLR1
Protocol: as §3
as §2, with “Binding of antibody constructs to huFOLR1-as well as cyFOLR1-transfected CHO cells was measured by flow cytometry. Equilibrium” for “Equilibrium”

[5] = target: T2, cynomolgus FOLR1 expressed on CHO cells …; assay: flow cytometry on cyFOLR1 CHO cells (cAg_126), one-site fit of MFI, Exp. 1
Protocol: as §3
as §2, with “Binding of antibody constructs to huFOLR1-as well as cyFOLR1-transfected CHO cells was measured by flow cytometry. Equilibrium” for “Equilibrium”

[6] = target: T2, cynomolgus FOLR1 expressed on CHO cells …; assay: flow cytometry on cyFOLR1 CHO cells (cAg_126), one-site fit of MFI, Exp. 3
Protocol: as §3
as §2, with “Binding of antibody constructs to huFOLR1-as well as cyFOLR1-transfected CHO cells was measured by flow cytometry. Equilibrium” for “Equilibrium”

[7] = target: T3, human FOLR1 expressed on CHO cells …; assay: flow cytometry on huFOLR1 CHO cells (cAg_125), one-site fit of MFI, Exp. 2
Protocol: as §3
as §2, with “Binding of antibody constructs to huFOLR1-as well as cyFOLR1-transfected CHO cells was measured by flow cytometry. Equilibrium” for “Equilibrium”

[8] = target: T3, human FOLR1 expressed on CHO cells …; assay: flow cytometry on huFOLR1 CHO cells (cAg_125), one-site fit of MFI, Exp. 3
Protocol: as §3
as §2, with “Binding of antibody constructs to huFOLR1-as well as cyFOLR1-transfected CHO cells was measured by flow cytometry. Equilibrium” for “Equilibrium”

[9] = target: T4, human CD16A (158F) expressed on CHO cells (cAg_34) (human, UniProt P08637 17-254); assay: flow cytometry on huCD16A (158F) CHO cells (cAg_34), one-site fit of MFI, mean
T4 construct: also called huCD16A-transfected CHO cells
Protocol: as §1, §2

[10] = target: T4, human CD16A (158F) expressed on CHO …; assay: flow cytometry on huCD16A (158F) CHO cells (cAg_34), one-site fit of MFI, Exp. 1
Protocol: as §1, §2

[11] = target: T4, human CD16A (158F) expressed on CHO …; assay: flow cytometry on huCD16A (158F) CHO cells (cAg_34), one-site fit of MFI, Exp. 2
Protocol: as §1, §2

[12] = target: T4, human CD16A (158F) expressed on CHO …; assay: flow cytometry on huCD16A (158F) CHO cells (cAg_34), one-site fit of MFI, Exp. 3
Protocol: as §1, §2

[13] = target: T5, human CD16A (158V) expressed on CHO cells (cAg_35) (human, UniProt P08637 17-254); assay: flow cytometry on huCD16A (158V) CHO cells (cAg_35), one-site fit of MFI, Exp. 1
T5 construct: also called huCD16A (158V)
Protocol: as §1, §2

[14] = target: T5, human CD16A (158V) expressed on CHO …; assay: flow cytometry on huCD16A (158V) CHO cells (cAg_35), one-site fit of MFI, Exp. 2
Protocol: as §1, §2

[15] = target: T5, human CD16A (158V) expressed on CHO …; assay: flow cytometry on huCD16A (158V) CHO cells (cAg_35), one-site fit of MFI, Exp. 3
Protocol: as §1, §2

[16] = target: T2, cynomolgus FOLR1 expressed on CHO cells …; assay: flow cytometry on cyFOLR1-transfected CHO cells (cAg_126), on ice, FITC goat anti-human IgG detection
Protocol: as §3

[17] = target: T5, human CD16A (158V) expressed on CHO …; assay: flow cytometry on huCD16A (158V)-transfected CHO cells (printed sAg_35), on ice, FITC goat anti-human IgG detection
Protocol: as §1

T2 sequence (A0A2K5U044 entry or part of it): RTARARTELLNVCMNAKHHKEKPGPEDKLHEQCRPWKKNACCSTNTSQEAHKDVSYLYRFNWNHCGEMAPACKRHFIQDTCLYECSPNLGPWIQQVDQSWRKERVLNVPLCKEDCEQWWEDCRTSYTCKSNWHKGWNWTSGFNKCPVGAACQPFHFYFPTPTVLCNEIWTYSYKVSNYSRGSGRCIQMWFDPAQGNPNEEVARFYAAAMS
T3 sequence (P15328 25-234): as the sequence (A0A2K5U044 entry or part of it) above, with T2I, R4W, K37R, P146A, Y171H counted along it
T1 sequence (Q8SPW2 17-254): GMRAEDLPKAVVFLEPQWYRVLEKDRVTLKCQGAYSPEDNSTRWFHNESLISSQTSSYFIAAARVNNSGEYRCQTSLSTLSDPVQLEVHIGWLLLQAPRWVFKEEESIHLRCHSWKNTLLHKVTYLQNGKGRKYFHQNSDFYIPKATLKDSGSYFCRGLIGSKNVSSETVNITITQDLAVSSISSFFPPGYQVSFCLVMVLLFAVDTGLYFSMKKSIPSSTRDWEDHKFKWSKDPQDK
T4 sequence (P08637 17-254 limits assumed): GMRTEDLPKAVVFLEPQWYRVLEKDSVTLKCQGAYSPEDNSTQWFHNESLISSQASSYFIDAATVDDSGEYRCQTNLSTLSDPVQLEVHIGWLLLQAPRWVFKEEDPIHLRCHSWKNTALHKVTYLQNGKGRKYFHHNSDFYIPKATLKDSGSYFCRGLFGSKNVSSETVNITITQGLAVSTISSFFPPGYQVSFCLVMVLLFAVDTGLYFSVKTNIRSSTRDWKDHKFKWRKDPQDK
T5 sequence (P08637 17-254 F176V limits assumed): as the sequence (P08637 17-254 limits assumed) above, with F160V counted along it

Kd [1]: 25.2 nM
Kd [2]: 22.8 nM
Kd [3]: 16.3 nM
Kd [4]: 35.8 nM
Kd [5]: 14.9 nM
Kd [6]: 18.8 nM
Kd [7]: 31.6 nM
Kd [8]: 40.6 nM
Kd [9]: 21.5 nM
Kd [10]: 16 nM
Kd [11]: 28.5 nM
Kd [12]: 19.9 nM
Kd [13]: 15.8 nM
Kd [14]: 29.1 nM
Kd [15]: 47.5 nM
EC50 (read off the curve) [16]: ~20 nM
EC50 (read off the curve) [17]: ~50 nM
B1: scFv-IgAb_387 (FOLR1_1×CD16a3) (bispecific antibody)
heavy: EVQLVESGGGVVQPGRSLRLSCSASGFTFSGYGLSWVRQAPGKGLEWVAMISSGGSYTYYADSVKGRFAISRDNAKNTLFLQMDSLRPEDTGVYFCARHGDDPAWFAYWGQGTPVTVSSASTKGPSVFPLAPSSKSTSGGTAALGCLVKDYFPEPVTVSWNSGALTSGVHTFPAVLQSSGLYSLSSVVTVPSSSLGTQTYICNVNHKPSNTKVDKKVEPKSCDKTHTCPPCPAPEFEGGPSVFLFPPKPKDTLMISRTPEVTCVVVAVSHEDPEVKFNWYVDGVEVHNAKTKPREEQYNSTYRVVSVLTVLHQDWLNGKEYKCKVSNKALPAPIEKTISKAKGQPREPQVYTLPPSREEMTKNQVSLTCLVKGFYPSDIAVEWESNGQPENNYKTTPPVLDSDGSFFLYSKLTVDKSRWQQGNVFSCSVMHEALHNHYTQKSLSLSPGGGGGSGGGGSGGGGSGGGGSGGGGSGGGGSSYELTQPLSVSVALGQTARITCGGNNIGSKSVHWYQQKPGQAPVLVIYQDKKRPSGIPERFSGSNSGNTATLTISRAQAGDEADYYCQVWDDYIVLFGCGTKLTVLGGSGGSGGSGGSGGSGGSGGSQVQLVQSGAEVKKPGASVKVSCKASGYTFTNYYMQWVRQAPGQCLEWMGIINPSGGVTSYAQKFQGRVTMTRDTSTSTVYMELSSLRSEDTAVYYCARGSAYYYDFADYWGQGTLVTVSSG
light: DIQLTQSPSSLSASVGDRVTITCSVSSSISSNNLHWYQQKPGKAPKPWIYGTSNLASGVPSRFSGSGSGTDYTFTISSLQPEDIATYYCQQWSSYPYMYTFGQGTKVEIKRTVAAPSVFIFPPSDEQLKSGTASVVCLLNNFYPREAKVQWKVDNALQSGNSQESVTEQDSKDSTYSLSSTLTLSKADYEKHKVYACEVTHQGLSSPVTKSFNRGEC
modifications: Chemically biotinylated (NHS-PEG4-biotin) in Example 22 only.
notes: Tetravalent bispecific scFv-IgAb; also called FOLR1×CD16A scFv-IgAb_387; FOLR1/CD16A scFv-IgAb_387; copies: 2 + 2

Kd [1]: 32.8 nM
Kd [2]: 28.2 nM
Kd [3]: 12.4 nM
Kd [4]: 24.7 nM
Kd [5]: 11.5 nM
Kd [6]: 14 nM
Kd [7]: 24.4 nM
Kd [8]: 29.3 nM
Kd [9]: 26.2 nM
Kd [10]: 22.1 nM
Kd [11]: 29.3 nM
Kd [12]: 27.1 nM
Kd [13]: 22 nM
Kd [14]: 43.3 nM
Kd [15]: 63.7 nM
EC50 (read off the curve) [16]: ~10 nM
EC50 (read off the curve) [17]: ~60 nM
B2: scFv-IgAb_381 (FOLR1_1×CD16a4) (bispecific antibody)
chain 1: EVQLVESGGGVVQPGRSLRLSCSASGFTFSGYGLSWVRQAPGKGLEWVAMISSGGSYTYYADSVKGRFAISRDNAKNTLFLQMDSLRPEDTGVYFCARHGDDPAWFAYWGQGTPVTVSSASTKGPSVFPLAPSSKSTSGGTAALGCLVKDYFPEPVTVSWNSGALTSGVHTFPAVLQSSGLYSLSSVVTVPSSSLGTQTYICNVNHKPSNTKVDKKVEPKSCDKTHTCPPCPAPEFEGGPSVFLFPPKPKDTLMISRTPEVTCVVVAVSHEDPEVKFNWYVDGVEVHNAKTKPREEQYNSTYRVVSVLTVLHQDWLNGKEYKCKVSNKALPAPIEKTISKAKGQPREPQVYTLPPSREEMTKNQVSLTCLVKGFYPSDIAVEWESNGQPENNYKTTPPVLDSDGSFFLYSKLTVDKSRWQQGNVFSCSVMHEALHNHYTQKSLSLSPGGGGGSGGGGSGGGGSGGGGSGGGGSGGGGSSYELTQPLSVSVALGQTARITCGGHNIGSKNVHWYQQKPGQAPVLVIYQDNKRPSGIPERFSGSNSGNTATLTISRAQAGDEADYYCQVWDNYNVLFGCGTKLTVLGGSGGSGGSGGSGGSGGSGGSQVQLVQSGAEVKKPGASVKVSCKASGYTFTSYYMHWVRQAPGQCLEWMGAIEPTYGSTSYAQKFQGRVTMTRDTSTSTVYMELSSLRSEDTAVYYCARGSAYYYDFADYWGQGTLVTVS
chain 2: B1 light
notes: also called FOLR1×CD16A scFv-IgAb_381
